{"source": "the nanobody polyreactivity screen of Harvey et al. (2022)"}
{"experiment": "yeast display, Sf9 membrane polyspecificity reagent, FACS + sequencing; frameworks hold sequencing errors", "in_short": "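Polyreactivity labels are assigned by the sorting gate from which each nanobody was recovered. The gates were low and high (top ~1%), set on anti-HA fluorescence for expression and streptavidin fluorescence for reagent binding. Before sorting, galactose-induced (36–48 hours) yeast display cells were stained for 1 hour at 4 °C with 10% biotinylated, detergent-solubilized Sf9 membrane reagent.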"}
{"sequence": "QVQLVESGGGLVQAGGSLRLSCAASGNIFLYYAMGWSRQAPGKERELVADIDSSGASTYYADSVKGRFTISRDNAKNTVYLQMNSLKPEDTAVYYCAAEFHWWYAGYDYGYWGQGTQVTVSS", "polyreactivity (PSR sort gate)": "low polyreactivity"}
{"sequence": "QVQLVESGGGLVQAGRSLRLSCAASGRTFVFNAMGWYRQAPGKERELVARITLSGGSTYYADSVKGRFTISRDNAKNTVYLQMNSLKPEDTAVYYCAASHYFWFVQNDSDYWGQGTQVTVSS", "polyreactivity (PSR sort gate)": "low polyreactivity"}
{"sequence": "QVQLVESGGGLVQAGGSLRLSCAASGLNFRQYAMGWYRKAPGKERELVAAITVTGGTTYYADSVKGRFTISRDNAKNTVYLQMNSLKPEDTAVYYCATRANYVGWTQFGHGYDYWGQGTQVTVSS", "polyreactivity (PSR sort gate)": "low polyreactivity"}
{"sequence": "QVQLVESGGGLVQAGGSLRLSCAASGFIFYSNAMGWYRQAPGKERELVAGISRGGSTYYADSVKGRFTISRDNAKNTVYLQMNRLKPEDTAVYYCAAKISLGDDYWGQGTQVTVSS", "polyreactivity (PSR sort gate)": "low polyreactivity"}
{"sequence": "RVQLVESGGGLFHAGGSLRLSCAASGRTFPTYDMGWYRQAPGKERELVAAINWSGGSTYYADSVKGRFTISRDNAKNTVYLQINSLKPEDTAVYYCNAELLRPSTLGVYLARNYWGQGSQVTVSS", "polyreactivity (PSR sort gate)": "low polyreactivity"}
{"sequence": "QVQLVESGGGLVHAGGSLRLSCAASGIIFGVYAMGWYRQAPGKERELVAAISWSGGSTYYADSVKGRFTISRDNAKNNVYLQMNSLKPEDTAVYYCAADAYPHEDYYWGQGNQVTVSS", "polyreactivity (PSR sort gate)": "high polyreactivity"}
{"sequence": "QLQLVESGGGLVQAGGSLRLSCAASASTFYRYAMCCYIQAPGKERELVAGISSSGGSTYYADSVKGRFTISRDNAKNTVYLQMNSLKPEDTAVYYCAAVGQWGYGYWGQGTQVTVSS", "polyreactivity (PSR sort gate)": "high polyreactivity"}
{"sequence": "QVQLVESGGGLVQAGGSLRLSCAASGSIFNWYAMGWYTQAPGKERELVAAISWRCGSTYYADSVKGRFTISRDNAKITVYLQMNSLKPEDTAVYYCAADGGADHMDYWGQGTQVTVSS", "polyreactivity (PSR sort gate)": "high polyreactivity"}
{"sequence": "QVQLVESGGGLVQAGGSLRLSCAASGIIFGRNAMGWYRQAPGKERELVAAIRWSGGSTYYADSVKGRFTISRDNAKNTVYLQMNSLKPEDTAVYYCAKRYSYWSGVKYGYWGQGTQVTVSS", "polyreactivity (PSR sort gate)": "high polyreactivity"}
{"sequence": "QVQLEESGGGLVQAGGSLRLSCAASGSTFDNNGMGWYRQATGKERELVASITFNVGSTYYADSVKGRFTMSRDNAKNTVYLQMNSLKPEDTAVYYCGADDLNLSQALGYDFWGQGTQVTVSS", "polyreactivity (PSR sort gate)": "low polyreactivity"}
{"sequence": "QVQLVESGGALVQAGGSLRLSCAASGFIFSYYVMGWYRQAPGKERELVAAITTSGDSTYYADSVKGRFTISRDNAKNTVYLQMNSLKPEDTAVYYCAADIYYETIWHYGYWGQGTQVTVSS", "polyreactivity (PSR sort gate)": "high polyreactivity"}
{"sequence": "QVQLVESGGGLVQAGGSLRLSCAASGSIFKIYAMGWYRQAPGKERELVASITGSGGSTYYADSVKGRFTISRDNAKNTVYLQMNSLKPEDTAVYYCAADVVRSNFYGTFLYDYDYWGQGTQVTVSS", "polyreactivity (PSR sort gate)": "low polyreactivity"}
{"sequence": "QVQLVESGGGLVQAGGSLRLSCAASGSTFGSYTMGWYRQAPGKEREFVAAIRWIGGSTYYADSVKGRFTISRDNAKNTVYLQMNSLKPEDTAVYYCNAKRRKHGYYYWGQGTQVTVSS", "polyreactivity (PSR sort gate)": "high polyreactivity"}
{"sequence": "QVHLVESGGGLVQAGGSLRLSCAASGLTFGVFAMGWYRQAPGKERELVAAITWRGDTTYYADSVKGRFTISRDNAKNTVYLQMNSLKPEDTAVYYCNAVFFYHGTKPAFISHDYWGQGTQVTVSS", "polyreactivity (PSR sort gate)": "low polyreactivity"}
{"sequence": "QVQLVESGGGLVQAGGSLRLSCAPSGLIFKKYTMGGYRQSPGKERELVASISKSGGSTYYADSVKGRFTFSRDNAKNTYYLQMNCLKPEDTAVYYCNRVSHYIRFDYWVQGTQVTVSS", "polyreactivity (PSR sort gate)": "low polyreactivity"}
{"sequence": "QVQLVESGGGLVQAGGSLRLSCAASGFTFRWYAMGWYRQAPGKERELVAAISTSGGSTYYADSVKGRFTITRDNAKNTVYLQMNSLKPEDTSVYYCNRVNNYPTRKYDYWGQGSQVTVSS", "polyreactivity (PSR sort gate)": "high polyreactivity"}
{"sequence": "QVQLVESGGGLVQAGGSLRLSCAASGGTFYRYAMGWYRQAPGKERELVAAISSNGGSTYYADSVKGRFTISRDNAKNTVYLQMNSLKPEDTAVYYCAAARDSIVYGQYDYWGQGTQVTVSS", "polyreactivity (PSR sort gate)": "low polyreactivity"}
{"sequence": "QVQLVESGGGLVQAGGSLRLSCAASGRIFYVYAMGWYRQAPGKEMELVATITSSGEGTYYADSVMGRFTISRDNAKNTVYLQMNSLKPEDTAVYYCARRYFVRFVHPPYYYWGQGTQVTVSS", "polyreactivity (PSR sort gate)": "low polyreactivity"}
{"sequence": "QVQLVESGGGLVQAGGSLRLSCAASGGTFGSNTMGWYRQAPGKERELVAAITSGVSTNYADSVKGRFTISRDNAKNTVYLQMNSLKPEDTAVYYCAKDLWSEEYETIITSYGFDYWGQGTQVTVSS", "polyreactivity (PSR sort gate)": "low polyreactivity"}
{"sequence": "QVQLVESGGGLVQAGGSLRLSCAASGGIFWYYAMGWYRQAPGKERELVAGISRGGGTYYADSVKGRFTISRDNAKNTVYLQMNSLKPEDTAVYYCAVDGRYAYAYEYWGQGTQVTVSS", "polyreactivity (PSR sort gate)": "low polyreactivity"}
{"sequence": "QVQLVESGGGLVQAGGSLRLSCAASARIQDKYARGWYRQAPGKERELVARIRFSGGDTYADSVKGRFTISRDNAKNTVYLQMNSLKPEDTAVYYCNKDRRNRWYAFDYWGQGTQVTVSS", "polyreactivity (PSR sort gate)": "low polyreactivity"}
{"sequence": "QVQLVESGGGLVQAGGSLRLSCAASGRTFLRNAMGWYRQAPGKEREFVAAISTRDGRTYYADSVKGRFTISRDNAKNTVYLQMNSLKPEDTAVYYCNAVNTAGYYYYYAFFWDYDYWGQGTQVTVSS", "polyreactivity (PSR sort gate)": "high polyreactivity"}
{"sequence": "QVQLVESGGGLVQAGGSLRLSCAASGTFYRYAMGWYRQAPGKERELVAAIDKTGDTTYYADSVKGRFTISRDNAKNTVYLQMNSLKPEDTAVYYCAATGYPRFGYWGQGTQVTVSS", "polyreactivity (PSR sort gate)": "high polyreactivity"}
{"sequence": "QVQLVESGGGLVQAGGSLRLSCAASGRIFTTNAMGWYRQAPGKDRELVAAITYSGGTTYYADSVKGRFTISRDNAKNTVYLEMNSLKPEDTAVYYCAADVKFSTPYDYWGQGTQVTVSS", "polyreactivity (PSR sort gate)": "low polyreactivity"}
{"sequence": "QVQLVESGGGLVQAGGSLRLSCAASGSIFLDYAMGWYRQAPGKERELVAANTSDGSTYYADSVKGRFTISRDKAKNTVYLQMNSLKPEDTAVYYCAVQDTSYDVQYSYGYWGQGTHVTVSS", "polyreactivity (PSR sort gate)": "low polyreactivity"}
{"sequence": "QVQLVESGGGLVQAGGSLRLSCAASGRIVYRYAMGWYRQAPGKERELVAAISSGGSTYYADSVKGRFTISRDNAKNTVYLQMNSLKPEDTAVYYCAATWGRGTYYLYYYWGQGTQVTGSS", "polyreactivity (PSR sort gate)": "high polyreactivity"}
{"sequence": "QVQLVESGGGLVQAGGSLRLSCAASGSTFPWNAMGWYRQAPGKERELDAAIRTGGGRTYYADSVKGRFTISRDNAKNTVYLQMNSLKPEDTAVYYCNAYQSSGRYRNSYGYWGQGTQVTVSS", "polyreactivity (PSR sort gate)": "high polyreactivity"}
{"sequence": "QVQLVESAGRLVQEGGSLRLRSAASGSIFKYNTMGWYRQAAGKERELVAGISYGGRTYYADSVKGRFTISRDNAKNTVYLHMNSLKPEYTAVYYCAARWSYFKTTHRNNYWGQGTQVTVSS", "polyreactivity (PSR sort gate)": "high polyreactivity"}
{"sequence": "QVQLVESGGGLVQAGGSLRLSCAASGGIFYRYAMGWYRQAPGKERELVAVISRSGSTYYADSVKGRFTISRDNAKNTVYLQMNSQKPEDTAVYYCNKYGQVPGYFSLDYWGQGTQVTVSS", "polyreactivity (PSR sort gate)": "high polyreactivity"}
{"sequence": "QVQLVESGGGLVQAGGSLRLSCAASGSTFHRYAMGWYRQAPGKERELVAAITSSGDITYYADSVKGRFTISRDNAKNTVYLQMNSLKPEDTAVYYCNADGFYSWLYDYWGQGTQVTVSS", "polyreactivity (PSR sort gate)": "low polyreactivity"}
